Holding throughout (conditions): tags: 125I-labelled; chain copies: 2
Series [1] deals with T1, VEGF165 (UniProt P15692-4 P15692-4:27-191). Description: competition; VEGF/Flt-1 inhibition more effective than 10K linear; values in figure.
Series [2] has as its target T1, VEGF165. The experiment in a line: competition; VEGF/Flt-1 inhibition less effective than 20K/20K branched; values in figure.
The target in series [3] is T1, VEGF165. The experiment in a line: competition; CMC conjugates inhibit VEGF/Flt-1 binding better than non-enhanced aptamer; CMC alone no effect; values in figure.
Series [4] addresses T1, VEGF165. The experiment in a line: competition; VEGF/Flt-1 inhibition less effective than 30K linear; values in figure.
Series [5] concerns the target T1, VEGF165. The experiment in a line: competition; 3'-PEG more effective than non-enhanced aptamer in inhibiting VEGF/Flt-1 binding; values in figure.
The target in series [6] is T1, VEGF165. The experiment in a line: competition; dextran conjugates inhibit VEGF/Flt-1 binding better than non-enhanced aptamer; dextran alone no effect; values in figure.
The target of series [7] is T1, VEGF165. Description: competition; inhibits 125I-VEGF165 binding to Flt-1/Fc; much more effective than EYE002; PBS, 1 mM CaCl2, 1 mM MgCl2, 0.01% HSA, pH 7.4, 37 C; IC50 only in figure. The protocol: Each well is then washed with 300 μL of binding buffer (PBS with 1 mM calcium chloride, 1 mM magnesium chloride, 0.01% HSA, PH 7.4) at room temperature twice. For KDR/Fc, 0.25 picomole (85 ng) of the chimeric receptor in 100 μL of binding buffer is added into the first 11 wells, whereas the twelfth well receive 0.5 picomole (118 ng) of human ICAM-1/Fc chimera protein as the background control well. For Flt-1/Fc, 0.125 picomole (30.8 ng) of the chimeric receptor in 100 μL of binding buffer each is added into the first 11 wells, whereas the background control well (#12) receive 0.5 picomole (118 ng) of human ICAM-1/Fc chimera protein. For neuropilin-1/Fc, 0.2 picomole (48 ng) of the chimeric receptor in 100 μl of binding buffer is added to all 12 wells. The chimeric receptors and human ICAM-1/Fc protein are captured onto the well by binding to the immobilized anti-human IgG₁ Fc fragment-specific antibody in each well at room temperature for 2 to 3 hour. […]
A set of 10 five-fold dilutions of the Pegaptanib (tube #1 to #10) ranging from 1 μM (or 2 μM) to 0.512 picomolar (pM) (or 1.024 pM) are each mixed with about 0.01 μCi of ¹²⁵I-VEGF₁₆₅ in binding buffer (PBS with 1 mM calcium chloride, 1 mM Magnesium Chloride, 0.01% HSA, pH 7.4) in non-stick 1.5 mL microfuge tubes, in a total 100 μL final volume each. […] The radioactivity of each well is determined by scintillation counting.

T1 sequence (P15692 other isoform, or with tags, fused parts or gaps): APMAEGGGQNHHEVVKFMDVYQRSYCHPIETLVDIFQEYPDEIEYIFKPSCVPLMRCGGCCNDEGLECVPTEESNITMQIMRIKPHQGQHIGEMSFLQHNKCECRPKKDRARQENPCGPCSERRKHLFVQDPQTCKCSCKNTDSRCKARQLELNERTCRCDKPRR

B1: 30K linear PEG VEGF aptamer conjugate (ssRNA)
RNA: CGGAAUCAGUGAAUGCUUAUACAUCCG
modifications: 2'-F on C and U, 2'-OMe on G and A except unmodified ribo A at positions 4 and 5; PEG 30K linear
For B1, the binding result with VEGF165 [1] was “binds”.

B2: 5K/5K branched PEG VEGF aptamer conjugate (ssRNA)
RNA: CGGAAUCAGUGAAUGCUUAUACAUCCG
modifications: 2'-F on C and U, 2'-OMe on G and A except unmodified ribo A at positions 4 and 5; PEG 5K/5K branched
B2: the binding result in the series with VEGF165 [2] is reported as “binds”.

B3: 5'-CMC VEGF aptamer conjugate (ssRNA)
RNA: CGGAAUCAGUGAAUGCUUAUACAUCCG
modifications: 2'-F on C and U, 2'-OMe on G and A except unmodified ribo A at positions 4 and 5; 5'-carboxymethyl cellulose (about 50 kDa)
On to B3, for which, in the series with VEGF165 [3], the binding result was “binds”.

B4: 10K linear PEG VEGF aptamer conjugate (ssRNA)
RNA: CGGAAUCAGUGAAUGCUUAUACAUCCG
modifications: 2'-F on C and U, 2'-OMe on G and A except unmodified ribo A at positions 4 and 5; PEG 10K linear
Consider B4, for which the binding result with VEGF165 [4] is given as “binds”.

B5: 3'-PEG VEGF aptamer conjugate (ssRNA)
RNA: CGGAAUCAGUGAAUGCUUAUACAUCCG
modifications: 2'-F on C and U, 2'-OMe on G and A except unmodified ribo A at positions 4 and 5; 3'-PEG
As for B5, in the series with VEGF165 [5], the binding result is listed as “binds”.

B6: 5'-dextran VEGF aptamer conjugate (ssRNA)
RNA: CGGAAUCAGUGAAUGCUUAUACAUCCG
modifications: 2'-F on C and U, 2'-OMe on G and A except unmodified ribo A at positions 4 and 5; 5'-dextran (e.g. 40 kDa)
B6: the binding result with VEGF165 [6] was “binds”.

B7: Pegaptanib (EYE001, Macugen, MacI; 20K/20K branched 5'-PEG VEGF aptamer) (ssRNA)
RNA: CGGAAUCAGUGAAUGCUUAUACAUCCG
modifications: 2'-F on C and U, 2'-OMe on G and A except unmodified ribo A at positions 4 and 5; 5'-PEG 40 kDa branched via amino linker; 3'-3' dT cap
Take B7: the binding result in the series with VEGF165 [7] was “binds”.

The values above are taken from US20050260153, “Facilitation of iontophoresis using charged moieties” (published 2005).
